For assay [1], the target named is CA IX expressed by cells (C-33a_CA IX transfectants; hypoxic BT-20, JIMT-1, 8-MG-BA and 42-MG-BA cells) (human) (UniProt Q16790). The experiment in a line: flow cytometry, M75 1 ug/ml and Alexa 488 secondary antibody, hypoxic BT-20 cells.
For assay [2] the target is unchanged. The assay can be described thus: flow cytometry, M75 1 ug/ml and Alexa 488 secondary antibody, hypoxic JIMT-1 cells.

On to mouse monoclonal antibody M75, for which the values for the median signal level of CA IX-staining in assay [1] and in assay [2] were 108 and 86.8, respectively.

Values taken from patent US20240150490A1.
